Where no end group is shown, it is not given here.
B1: PR10, synthetic poly-proline-arginine 10-mer dipeptide repeat protein with C-terminal lysine and cysteine (peptide)
peptide: PRPRPRPRPRPRPRPRPRPRKC
notes: C9orf72 repeat-associated non-AUG translation product poly-PR, 10 repeats, plus C-terminal K and C; unlabelled form; also called R-DPR; source: synthetic peptide (Genscript; 21st Century Biochemicals)
B2: GR10, synthetic poly-glycine-arginine 10-mer dipeptide repeat protein with C-terminal lysine and cysteine (peptide)
peptide: GRGRGRGRGRGRGRGRGRGRKC
notes: C9orf72 repeat-associated non-AUG translation product poly-GR, 10 repeats, plus C-terminal K (solubility) and C (labelling); unlabelled form, used in the FRET, GFP-Trap, sedimentation and import assays; also called poly-GR; R-DPR; source: synthetic peptide (Genscript; 21st Century Biochemicals)
B3: AF488-labeled GR10 (peptide)
peptide: GRGRGRGRGRGRGRGRGRGRKC(Alexa Fluor 488 C5‑maleimide)
notes: poly-GR, 10 repeats, plus C-terminal K and C; also called AF488-GR10; DPR-AF488; source: synthetic peptide (Genscript)
B4: AF488-labeled PR10 (peptide)
peptide: PRPRPRPRPRPRPRPRPRPRKC(Alexa Fluor 488 C5‑maleimide)
notes: poly-PR, 10 repeats, plus C-terminal K and C; also called AF488-PR10; DPR-AF488; source: synthetic peptide (Genscript)

Key:
[1] = biological target: T1, 6His-S-Importin β(1-876), full-length WT human importin β (human, UniProt Q14974 1-876); test: FRET or BRET; Rango FRET sensor in solution: 20 nM Rango-2/α1 (pK188) and 50 nM importin β (pKW485) in TBS pH 7.4, 0.01% Tween-20, with increasing concentrations of DPR 10-mers or ZZ-RanQ69L-GTP; ratio of acceptor (535 nm) to donor (480 nm) emission; non-linear fit with one binding site; settings: both partners purified
T1 construct: human importin β (KPNB1), full length, residues 1-876, expressed from pET30a; Construct from Chi et al., 1997; also called KPNB1; WT importin β (pKW485)
T1 sequence (Q14974 whole entry, the tested form may be a part): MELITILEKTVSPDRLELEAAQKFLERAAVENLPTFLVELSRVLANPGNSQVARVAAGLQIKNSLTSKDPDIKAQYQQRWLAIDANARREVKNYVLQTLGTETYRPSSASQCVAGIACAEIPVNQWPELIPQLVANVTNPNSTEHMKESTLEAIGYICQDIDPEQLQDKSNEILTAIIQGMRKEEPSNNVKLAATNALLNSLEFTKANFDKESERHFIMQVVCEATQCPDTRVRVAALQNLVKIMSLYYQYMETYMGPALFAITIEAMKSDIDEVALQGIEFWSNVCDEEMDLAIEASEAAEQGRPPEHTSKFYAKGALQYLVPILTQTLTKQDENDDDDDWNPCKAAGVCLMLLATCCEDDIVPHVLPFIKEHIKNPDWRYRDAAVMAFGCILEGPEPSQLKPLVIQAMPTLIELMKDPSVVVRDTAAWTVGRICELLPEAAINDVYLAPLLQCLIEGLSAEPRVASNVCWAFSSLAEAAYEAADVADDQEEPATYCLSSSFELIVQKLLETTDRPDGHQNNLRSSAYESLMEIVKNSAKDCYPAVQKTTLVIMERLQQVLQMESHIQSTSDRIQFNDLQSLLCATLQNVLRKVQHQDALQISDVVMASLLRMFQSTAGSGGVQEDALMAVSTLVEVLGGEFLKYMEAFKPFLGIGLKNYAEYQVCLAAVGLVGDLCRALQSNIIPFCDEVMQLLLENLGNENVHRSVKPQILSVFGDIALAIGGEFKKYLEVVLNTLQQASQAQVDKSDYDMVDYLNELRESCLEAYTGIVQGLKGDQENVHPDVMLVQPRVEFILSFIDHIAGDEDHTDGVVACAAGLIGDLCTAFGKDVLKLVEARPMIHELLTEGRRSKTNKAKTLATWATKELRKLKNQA

[2] = biological target: T2, biotinylated WT importin β-Avitag (human, UniProt Q14974 1-876, biotin on the Avitag); test: bead halo assay; biotinylated importin β or biotinylated BSA on neutravidin polystyrene beads; fluorescent prey (200 nM AF488-DPR, Rango) in binding buffer with assay buffer (EDTA, BSA, NaCl, Tween); room temperature, at least 30 min; confocal rim vs. background ratio; settings: both partners purified
T2 construct: WT human importin β (KPNB1) in pRSET A with C-terminal Avitag; Called WT; Held on neutravidin beads by the biotin; also called biotinylated importin β; importin β-coated beads; source: E. coli BL21DE3, co-expressed with BirA biotin ligase, purified (Ni-NTA)
T2 sequence (Q14974 whole entry): as the sequence (Q14974 whole entry, the tested form may be a part) above

| Binder | binding result [1] | halo intensity (rim vs. background) relative to control beads [2] [fold] |
| --- | --- | --- |
| B1 | binds |  |
| B2 | binds |  |
| B3 |  | ~2 |
| B4 |  | ~2 |
